Values of other authors, collected in patent publication US11931453B2, “Drug delivery device” (NANO PRECISION MEDICAL, INC., priority 2016, dated 2024).

Conditions: estimated, based on molecular dimensions of similar peptides (literature)

In the case of “GLP-1: Glucagon-Like Peptide-1; exenatide is an analog of GLP-1”, the “Stokes' diameter / hydrodynamic diameter” value is listed as “about 2.6 nm”.
